Assay results from patent US20210269519A1 (University of Texas, published 2021).

T1: FLAG-tagged β-catenin
T1 chain: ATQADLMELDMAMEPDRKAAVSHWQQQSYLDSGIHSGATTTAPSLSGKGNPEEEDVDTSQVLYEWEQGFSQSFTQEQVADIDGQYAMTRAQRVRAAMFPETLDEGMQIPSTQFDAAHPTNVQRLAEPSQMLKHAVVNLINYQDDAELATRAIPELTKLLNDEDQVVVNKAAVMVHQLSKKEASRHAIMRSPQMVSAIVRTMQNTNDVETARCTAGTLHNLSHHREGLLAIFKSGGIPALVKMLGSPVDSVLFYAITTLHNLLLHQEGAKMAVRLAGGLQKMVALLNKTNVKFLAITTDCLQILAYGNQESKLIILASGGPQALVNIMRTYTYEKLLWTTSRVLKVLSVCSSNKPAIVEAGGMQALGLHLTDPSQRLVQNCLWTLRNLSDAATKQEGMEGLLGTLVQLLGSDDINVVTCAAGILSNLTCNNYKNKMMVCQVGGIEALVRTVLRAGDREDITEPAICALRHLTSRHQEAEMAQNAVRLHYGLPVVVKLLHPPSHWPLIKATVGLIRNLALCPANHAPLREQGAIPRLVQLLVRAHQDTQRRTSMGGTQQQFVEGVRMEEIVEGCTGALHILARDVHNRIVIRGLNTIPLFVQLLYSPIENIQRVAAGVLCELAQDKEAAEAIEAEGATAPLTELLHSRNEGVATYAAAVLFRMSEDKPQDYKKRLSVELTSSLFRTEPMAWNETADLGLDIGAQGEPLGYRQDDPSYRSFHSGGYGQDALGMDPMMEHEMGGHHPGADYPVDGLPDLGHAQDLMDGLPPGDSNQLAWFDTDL

T2: Flag tagged-human Lmbr1l (limb region 1 like, LMBR1L) (human, UniProt Q6UX01 1-489)
T2 construct: It carries a Flag tag; also called h-LMBR1L; LIMR
T2 sequence: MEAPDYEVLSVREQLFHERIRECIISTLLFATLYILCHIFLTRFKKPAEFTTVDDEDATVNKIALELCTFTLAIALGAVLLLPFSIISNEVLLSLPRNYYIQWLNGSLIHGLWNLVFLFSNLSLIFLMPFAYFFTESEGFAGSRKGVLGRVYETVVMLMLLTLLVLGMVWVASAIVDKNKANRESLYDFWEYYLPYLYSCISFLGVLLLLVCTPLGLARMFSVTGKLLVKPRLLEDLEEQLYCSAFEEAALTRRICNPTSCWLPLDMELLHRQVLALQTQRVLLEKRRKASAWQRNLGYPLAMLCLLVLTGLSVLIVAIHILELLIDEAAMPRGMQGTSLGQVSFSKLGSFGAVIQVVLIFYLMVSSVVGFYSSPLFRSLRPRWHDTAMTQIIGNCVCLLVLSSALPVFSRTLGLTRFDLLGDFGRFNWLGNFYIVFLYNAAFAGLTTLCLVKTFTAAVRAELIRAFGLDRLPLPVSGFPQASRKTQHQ

B1: glycoprotein 78 (GP78; known as AMFR) (enzyme, UniProt Q9UKV5 1-643, looked up)
chain: MPLLFLERFPWPSLRTYTGLSGLALLGTIISAYRALSQPEAGPGEPDQLTASLQPEPPAPARPSAGGPRARDVAQYLLSDSLFVWVLVNTACCVLMLVAKLIQCIVFGPLRVSERQHLKDKFWNFIFYKFIFIFGVLNVQTVEEVVMWCLWFAGLVFLHLMVQLCKDRFEYLSFSPTTPMSSHGRVLSLLVAMLLSCCGLAAVCSITGYTHGMHTLAFMAAESLLVTVRTAHVILRYVIHLWDLNHEGTWEGKGTYVYYTDFVMELTLLSLDLMHHIHMLLFGNIWLSMASLVIFMQLRYLFHEVQRRIRRHKNYLRVVGNMEARFAVATPEELAVNNDDCAICWDSMQAARKLPCGHLFHNSCLRSWLEQDTSCPTCRMSLNIADNNRVREEHQGENLDENLVPVAAAEGRPRLNQHNHFFHFDGSRIASWLPSFSVEVMHTTNILGITQASNSQLNAMAHQIQEMFPQVPYHLVLQDLQLTRSVEITTDNILEGRIQVPFPTQRSDSIRPALNSPVERPSSDQEEGETSAQTERVPLDLSPRLEETLDFGEVEVEPSEVEDFEARGSRFSKSADERQRMLVQRKDELLQQARKRFLNKSSEDDAASESFLPSEGASSDPVTLRRRMLAAAAERRLQKQQTS
notes: Identified by LC-MS/MS in the LMBR1L co-IP; also called AMFR (GP78)
B2: ubiquitin associated domain containing 2 (UBAC2) (other, UniProt Q8NBM4 36-344, looked up)
chain: HCQKLFVYDLHAVKNDFQIWRLICGRIICLDLKDTFCSSLLIYNFRIFERRYGSRKFASFLLGSWVLSALFDFLLIEAMQYFFGITAASNLPSGFLAPVFALFVPFYCSIPRVQVAQILGPLSITNKTLIYILGLQLFTSGSYIWIVAISGLMSGLCYDSKMFQVHQVLCIPSWMAKFFSWTLEPIFSSSEPTSEARIGMGATLDIQRQQRMELLDRQLMFSQFAQGRRQRQQQGGMINWNRLFPPLRQRQNVNYQGGRQSEPAAPPLEVSEEQVARLMEMGFSRGDALEALRASNNDLNVATNFLLQH
notes: Identified by LC-MS/MS in the LMBR1L co-IP
B3: UBX domain-containing protein 8 (UBXD8, known as FAF2) (other, UniProt Q96CS3 2-445, looked up)
chain: AAPEERDLTQEQTEKLLQFQDLTGIESMDQCRHTLEQHNWNIEAAVQDRLNEQEGVPSVFNPPPSRPLQVNTADHRIYSYVVSRPQPRGLLGWGYYLIMLPFRFTYYTILDIFRFALRFIRPDPRSRVTDPVGDIVSFMHSFEEKYGRAHPVFYQGTYSQALNDAKRELRFLLVYLHGDDHQDSDEFCRNTLCAPEVISLINTRMLFWACSTNKPEGYRVSQALRENTYPFLAMIMLKDRRMTVVGRLEGLIQPDDLINQLTFIMDANQTYLVSERLEREERNQTQVLRQQQDEAYLASLRADQEKERKKREERERKRRKEEEVQQQKLAEERRRQNLQEEKERKLECLPPEPSPDDPESVKIIFKLPNDSRVERRFHFSQSLTVIHDFLFSLKESPEKFQIEANFPRRVLPCIPSEEWPNPPTLQEAGLSHTEVLFVQDLTDE
notes: Identified by LC-MS/MS in the LMBR1L co-IP; also called FAF2 (UBXDB8)

Molecular target: Flag tagged-human Lmbr1l (limb region 1 like, LMBR1L) (human) (UniProt Q6UX01)
Experiment: anti-FLAG co-IP from HEK293T lysate + LC-MS/MS, vs empty vector

Row | Ratio h-LMBR1L/h-vector | Molecule
1 | 118 | RPN1 (from UniProt P04843 24-607)
2 | 110 | COPA (from UniProt P53621 1-1224)
3 | 107 | NDUFA2 (from UniProt O43678 2-99)
4 | 100 | IMMT
5 | 67.3 | PDCD6IP (from UniProt Q8WUM4 2-868)
6 | 79.5 | CKAP4 (from UniProt Q07065 1-602)
7 | 198 | GANAB (from UniProt Q14697 29-944) (enzyme)
8 | 58.1 | EIF4G1 (from UniProt E7EUU4 1-1560)
9 | 58.1 | MAGED1 (from UniProt Q9Y5V3 1-778)
10 | 97.8 | TMEM209 (from UniProt Q96SK2 1-561)
11 | 51.6 | USP9X (from UniProt Q93008 1-2554) (enzyme)
12 | 81.9 | AAAS (from UniProt F8VZ44 1-422)
13 | 87.6 | PTPLAD1
14 | 65.6 | STT3A (from UniProt P46977 1-705) (enzyme)
15 | 110 | GAPVD1 (from UniProt Q14C86 1-1478)
16 | 231 | SRPRB (from UniProt Q9Y5M8 1-271)
17 | 87.6 | FKBP8 (from UniProt Q14318 1-413)
18 | 198 | SRP68 (from UniProt Q9UHB9 1-627)
19 | 87 | TMEM33 (from UniProt P57088 2-247)
20 | 106 | IARS (from UniProt J3KR24 1-1121) (enzyme)
21 | 169 | NCAPD2 (from UniProt Q15021 1-1401)

Molecular target: T1, FLAG-tagged β-catenin
Experiment: not given

Row | Molecule | ubiquitination of β-catenin (anti-FLAG IP, anti-ubiquitin immunoblot)
22 | B1 | Co-expression of FLAG-tagged β-catenin and HA-tagged GP78 strongly promoted the ubiquitination of β-catenin

Molecular target: T2, Flag tagged-human Lmbr1l (limb region 1 …)
Experiment: anti-FLAG co-IP from HEK293T lysate + LC-MS/MS, vs empty vector
Protocol: We sought to understand the immune function of LMBRL1 by identifying LMBR1L-interacting proteins using co-immunoprecipitation (co-IP) combined with mass spectrometry (MS) analysis. Among the 1,623 candidate proteins identified as putative LMBR1L interactors (Dataset S1), 25 proteins were >50-fold more abundant in the LMBR1L co-IP product relative to empty vector control (Table 1).
Co-immunoprecipitation and mass spectrometry were performed to identify Lmbr1l-interacting proteins as described below. Transfection was performed in HEK293T cells (ATCC) using Lipofectamine 2000 reagent (Life technologies) with plasmid encoding Flag tagged-human Lmbr1l or empty vector control. Forty-eight hours after transfection, cells were harvested in NP-40 lysis buffer for 45 min at 4° C. […] The proteins were eluted with SDS sample buffer and heated at 95° C. for 10 min. Lysates were loaded onto 12% (wt/vol) SDS-PAGE gel and run 1 cm into the separation gel. The gel was stained with Coomassie blue (Thermo Fisher) and whole stained lanes were subjected to mass spectrometry analysis (LCMS/MS) as described previously (33).

Row | Ratio h-LMBR1L/h-vector | Molecule
23 | 297 ratio | B2
24 | 51.7 ratio | B1
25 | 71.2 ratio | B3
